Source: patent publication US20200129532

Target: T1, HA-tagged VDR (vitamin D receptor), wild type (UniProt P11473)
T1 sequence: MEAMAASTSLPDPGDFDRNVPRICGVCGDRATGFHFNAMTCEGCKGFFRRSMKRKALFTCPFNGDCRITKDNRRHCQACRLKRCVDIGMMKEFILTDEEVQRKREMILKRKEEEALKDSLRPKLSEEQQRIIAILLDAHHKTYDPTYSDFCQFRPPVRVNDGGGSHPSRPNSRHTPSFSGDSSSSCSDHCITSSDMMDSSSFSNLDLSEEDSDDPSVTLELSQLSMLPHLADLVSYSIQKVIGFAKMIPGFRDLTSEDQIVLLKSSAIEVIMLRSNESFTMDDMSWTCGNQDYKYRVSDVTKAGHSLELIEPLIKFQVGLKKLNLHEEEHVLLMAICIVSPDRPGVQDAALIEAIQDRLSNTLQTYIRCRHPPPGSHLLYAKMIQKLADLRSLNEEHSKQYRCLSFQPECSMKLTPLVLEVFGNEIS

For enzymatically dead PCAF (D608A), the VDR acetylation was “but not with the enzymatically dead PCAF D608A mutant”.
